Data: PMC3293900, “Single Cycle Structure-Based Humanization of an Anti-Nerve Growth Factor Therapeutic Antibody” (PLoS ONE, 2012)

Columns and labels:
[1] = target: T1, human Nerve Growth Factor (Homo sapiens, UniProt P01138); assay: SPR; BIACore; hNGF amine-coupled on CM5 chips (89, 93, 100 RU); Fab hum-αD11 0.39-25 nM injected in HBSEP pH 7.4 with 100 µg/ml BSA, 50 µl/min; triplicate; apparent constants; settings: both partners purified
T1 construct: human Nerve Growth Factor (beta-NGF), mature growth factor; also called hNGF; human NGF; source: obtained according to Covaceuszach et al. [77]

[2] = target: T1, human Nerve Growth Factor; assay: SPR; BIACore; rat mAb αD11 amine-coupled on CM5 chips (1025, 1040, 1280 RU); hNGF 0.29-37.5 nM injected in PBS with 0.005% Surfactant P20, 30 µl/min; triplicate; apparent constants; settings: both partners purified

T1 sequence (P01138 122-241): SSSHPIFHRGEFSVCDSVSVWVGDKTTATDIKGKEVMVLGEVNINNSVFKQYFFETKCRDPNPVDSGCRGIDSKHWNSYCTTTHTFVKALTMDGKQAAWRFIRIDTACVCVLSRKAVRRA

Binder | Ka [1] | Kd [1] | Ka [2] | Kd [2]
Fab fragment of the humanized anti-NGF antibody hum-αD11 (Fab, V domains shown, as the VH of m3 (hum-αD11 VH); constant part of the Fab heavy chain; not described for the Fab provided by PanGenetics; as the Vκ of m3 (hum-αD11 Vκ); positions L46 and L87 mutated to the rat αD11 residue, Kabat numbering; constant part of the Fab light chain; also called Fab hum-αD11; source: kindly provided by PanGenetics UK Ltd) VH: EVQLVESGGGLVQPGGSLRLSCAASGFSLTNNNVNWVRQAPGKGLEWVGGVWAGGATDYNSALKSRFTISRDNSKNTAYLQMNSLRAEDTAVYYCARDGGYSSSTLYAMDAWGQGTLVTVSS VL: DIQMTQSPSSLSASVGDRVTITCRASEDIYNALAWYQQKPGKAPKLLIYNTDTLHTGVPSRFSGSGSGTDYTLTISSLQPEDFATYFCQHYFHYPRTFGQGTKVEIK | 3.4e+10 M⁻¹ | 0.0289 ± 0.0041 nM |  | 
rat anti-NGF monoclonal antibody (mAb) αD11 (antibody, V domains shown, VH of rat αD11; rat heavy chain constant region; the CH1 part is in PDB 1ZAN (Fab); light chain of rat αD11; whole light chain in PDB 1ZAN (Fab αD11); Whole rat IgG; also called parental mAb αD11; rat αD11) VH: QVQLKESGPGLVQPSQTLSLTCTVSGFSLTNNNVNWVRQATGRGLEWMGGVWAGGATDYNSALKSRLTITRDTSKSQVFLKMHSLQSEDTATYYCARDGGYSSSTLYAMDAWGQGTTVTVSA VL: DIQMTQSPASLSASLGETVTIECRASEDIYNALAWYQQKPGKSPQLLIYNTDTLHTGVPSRFSGSGSGTQYSLKINSLQSEDVASYFCQHYFHYPRTFGGGTKLELK |  |  | 2.21e+09 M⁻¹ | 0.451 ± 0.045 nM
